# Results: PMC7264293, “Multi-site-mediated entwining of the linear WIR-motif around WIPI β-propellers for autophagy” (Nature Communications, 2020)
# Target: WIPI3-Δloop (human), Q5MNZ6
# Assay: ITC; WIPI3 proteins in the sample cell, GB1-tagged ATG2A fragments in the syringe; 25 °C; 50 mM Tris-HCl pH 8.0, 100 mM NaCl, 1 mM EDTA, 1 mM DTT; model of one binding site
# Chain of WIPI3-Δloop (human), Q5MNZ6 (Q5MNZ6 other isoform, or with tags, fused parts or gaps mutant): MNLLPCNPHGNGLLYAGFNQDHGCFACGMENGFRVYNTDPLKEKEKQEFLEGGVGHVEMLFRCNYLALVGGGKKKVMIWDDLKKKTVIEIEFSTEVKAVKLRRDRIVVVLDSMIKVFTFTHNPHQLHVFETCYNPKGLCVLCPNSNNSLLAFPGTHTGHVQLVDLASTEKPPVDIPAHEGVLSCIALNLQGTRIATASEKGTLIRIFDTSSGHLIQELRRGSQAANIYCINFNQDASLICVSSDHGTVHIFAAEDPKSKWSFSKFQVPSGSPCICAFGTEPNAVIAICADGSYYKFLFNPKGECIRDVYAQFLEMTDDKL
binder,measurement,value
GPIVVRDGYFSRPIGSTD (modifications not checked) [GB1-tagged WIR-peptide ΔN-strand],Kd,64.3 µM
